± gives the standard deviation.

The results in this text go back to the supplement of paper PMC10598134.

The data set is described as follows: collision cross section of modified peptide (TIMS, N2, iRT-aligned); higher = larger / more extended gas-phase ion. A digest of the protocol: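 Collision cross section was derived from the Mason-Schamp equation. Each value averages 1–3 technical replicates of the most abundant feature per charge state, measured on a timsTOF Pro/HT in dda-PASEF mode (nitrogen, ~2.4 mbar) after a 120-min nanoflow C18 gradient at 60 °C. Synthetic peptide pools (~100 fmol/µL in 2% acetonitrile/0.1% formic acid, iRT standard spiked 1:40) were identified with MaxQuant, and 1/K0 was calibrated with three reference ions and aligned run-wise to the median iRT peptide deviation.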

[1] abbreviates: charge state: 3, modification: Butyryl.
The mark [2] stands for this setting: charge state: 3, modification: Crotonyl.
Where [3] appears, read: charge state: 3, modification: Formyl.
Setting [4] is: charge state: 2, modification: Glutarylation.
Setting [5] is: charge state: 3, modification: Glutarylation.
[6] abbreviates: charge state: 3, modification: GlyGly (K).
Setting [7] is: charge state: 3, modification: Malonyl.
Setting [8] is: charge state: 3, modification: Methyl (K).
The mark [9] stands for this setting: charge state: 3, modification: Succinyl.
[10] abbreviates: charge state: 3, modification: Trimethyl (K).
Where [11] appears, read: charge state: 2, modification: hydroxyisobutyryl.
[12] abbreviates: charge state: 3, modification: hydroxyisobutyryl.
Setting [13] is: charge state: 2, modification: Acetyl (K).
The mark [14] stands for this setting: charge state: 3, modification: Acetyl (K).
The mark [15] stands for this setting: charge state: 3, modification: Biotin.
The mark [16] stands for this setting: charge state: 2, modification: Butyryl.
Where [17] appears, read: charge state: 2, modification: Crotonyl.
[18] abbreviates: charge state: 3, modification: Dimethyl (K).
Where [19] appears, read: charge state: 2, modification: Formyl.
The mark [20] stands for this setting: charge state: 2, modification: GlyGly (K).
Setting [21] is: charge state: 2, modification: Malonyl.
Setting [22] is: charge state: 2, modification: Methyl (K).
Setting [23] is: charge state: 2, modification: Succinyl.
Where [24] appears, read: charge state: 2, modification: Dimethyl (K).
The mark [25] stands for this setting: charge state: 2, modification: Trimethyl (K).

Consider “IHNAENIQPGEQKYEYK [_IHNAENIQPGEQK(Butyryl)YEYK_]”, for which, under setting [1], the collision cross section is on record as 530.34 ± 2.7 Å².
Take “IHNAENIQPGEQKYEYK [_IHNAENIQPGEQK(Crotonyl)YEYK_]”: the collision cross section under setting [2] is 531.58 ± 2.8 Å².
The sequence “IHNAENIQPGEQKYEYK [_IHNAENIQPGEQK(Formyl)YEYK_]” showed a collision cross section under setting [3] of 518.35 ± 1.3 Å².
Regarding “IHNAENIQPGEQKYEYK [_IHNAENIQPGEQK(Gluratylation)YEYK_]”, the collision cross section is given as 490.8 ± 1.2 Å² under setting [4] and 532.09 ± 1.1 Å² under setting [5].
Under setting [6], “IHNAENIQPGEQKYEYK [_IHNAENIQPGEQK(GlyGly (K))YEYK_]” showed a collision cross section of 529.6 ± 1.2 Å².
In the case of “IHNAENIQPGEQKYEYK [_IHNAENIQPGEQK(Malonyl)YEYK_]”, the collision cross section under setting [7] came out at 527.67 ± 2.8 Å².
The sequence “IHNAENIQPGEQKYEYK [_IHNAENIQPGEQK(Methyl (K))YEYK_]” came in with a collision cross section under setting [8] of 526.19 ± 0.79 Å².
The sequence “IHNAENIQPGEQKYEYK [_IHNAENIQPGEQK(Succinyl)YEYK_]” had a collision cross section under setting [9] of 525.87 ± 2 Å².
Regarding “IHNAENIQPGEQKYEYK [_IHNAENIQPGEQK(Trimethyl (K))YEYK_]”, the collision cross section under setting [10] is on record as 526.11 ± 2.2 Å².
Take “IHNAENIQPGEQKYEYK [_IHNAENIQPGEQK(hydroxyisobutyryl)YEYK_]”: the collision cross section runs as follows: under setting [11], 491.39 ± 0.68 Å²; under setting [12], 532.88 ± 2 Å².
Consider IHPEGPPLK [_IHP(Hydroxyproline)EGPPLK_], for which the collision cross section is, setting by setting: (charge state: 2, modification: Hydroxyproline) 331.8 ± 0.88 Å²; (charge state: 3, modification: Hydroxyproline) 438.36 ± 0.43 Å².
“IHVQSSSDSSDEPAEKR [_IHVQSSSDSSDEPAEK(Acetyl (K))R_]”: the collision cross section reads like this: under setting [13], 446.96 ± 2.2 Å²; under setting [14], 501.64 ± 1.1 Å².
Take “IHVQSSSDSSDEPAEKR [_IHVQSSSDSSDEPAEK(Biotin)R_]”: under setting [15], the collision cross section came to 513.52 Å².
Sequence “IHVQSSSDSSDEPAEKR [_IHVQSSSDSSDEPAEK(Butyryl)R_]” had a collision cross section under setting [16] of 452.33 ± 0.51 Å² and a collision cross section under setting [1] of 504.47 ± 2.6 Å².
Turning to “IHVQSSSDSSDEPAEKR [_IHVQSSSDSSDEPAEK(Crotonyl)R_]”, the collision cross section by setting is: under setting [17], 451.2 Å²; under setting [2], 506.27 ± 1.7 Å².
As for “IHVQSSSDSSDEPAEKR [_IHVQSSSDSSDEPAEK(Dimethyl (K))R_]”, under setting [18], the collision cross section came out at 519.62 ± 3.4 Å².
Take “IHVQSSSDSSDEPAEKR [_IHVQSSSDSSDEPAEK(Formyl)R_]”: the collision cross section is, setting by setting: under setting [19], 447.23 Å²; under setting [3], 491.34 ± 2.1 Å².
For the sequence “IHVQSSSDSSDEPAEKR [_IHVQSSSDSSDEPAEK(Gluratylation)R_]”, the collision cross section is, setting by setting: under setting [4], 455.23 ± 1.5 Å²; under setting [5], 511.69 ± 2 Å².
On to “IHVQSSSDSSDEPAEKR [_IHVQSSSDSSDEPAEK(GlyGly (K))R_]”, for which the collision cross section under setting [20] is given as 469.51 Å² and the collision cross section under setting [6] was 539.73 ± 0.58 Å².
Turning to “IHVQSSSDSSDEPAEKR [_IHVQSSSDSSDEPAEK(Malonyl)R_]”, the collision cross section is on record as 452 ± 1.6 Å² under setting [21] and 506.71 ± 1.6 Å² under setting [7].
With “IHVQSSSDSSDEPAEKR [_IHVQSSSDSSDEPAEK(Methyl (K))R_]”, the collision cross section reads like this: under setting [22], 448.84 Å²; under setting [8], 522.27 ± 1 Å².
Take “IHVQSSSDSSDEPAEKR [_IHVQSSSDSSDEPAEK(Propionyl)R_]”: the collision cross section (charge state: 3, modification: Propionyl) is 506.45 ± 1.4 Å².
For “IHVQSSSDSSDEPAEKR [_IHVQSSSDSSDEPAEK(Succinyl)R_]”, the collision cross section is 452.62 ± 0.81 Å² under setting [23] and 507.09 ± 1.9 Å² under setting [9].
The sequence “IHVQSSSDSSDEPAEKR [_IHVQSSSDSSDEPAEK(Trimethyl (K))R_]” yielded a collision cross section under setting [10] of 528.1 ± 1.6 Å².
“IHVQSSSDSSDEPAEKR [_IHVQSSSDSSDEPAEK(hydroxyisobutyryl)R_]”: the collision cross section was found to be 455.71 ± 0.4 Å² under setting [11] and 514.66 ± 3.7 Å² under setting [12].
With “IINEPTAAAIAYGLDKK [_IINEPTAAAIAYGLDK(Acetyl (K))K_]”, the collision cross section under setting [13] is 458.66 ± 2.6 Å² and the collision cross section under setting [14] is 554.46 ± 1.6 Å².
Turning to “IINEPTAAAIAYGLDKK [_IINEPTAAAIAYGLDK(Butyryl)K_]”, the collision cross section is 465.29 ± 0.5 Å² under setting [16] and 559.62 ± 0.45 Å² under setting [1].
In the case of “IINEPTAAAIAYGLDKK [_IINEPTAAAIAYGLDK(Crotonyl)K_]”, the collision cross section by setting is: under setting [17], 463.28 ± 1.3 Å²; under setting [2], 561.41 ± 1.2 Å².
Turning to “IINEPTAAAIAYGLDKK [_IINEPTAAAIAYGLDK(Dimethyl (K))K_]”, the collision cross section runs as follows: under setting [24], 490.46 ± 1.8 Å²; under setting [18], 554.13 ± 0.54 Å².
Take “IINEPTAAAIAYGLDKK [_IINEPTAAAIAYGLDK(Formyl)K_]”: the collision cross section runs as follows: under setting [19], 458.24 ± 1.2 Å²; under setting [3], 548.84 ± 1.7 Å².
As to “IINEPTAAAIAYGLDKK [_IINEPTAAAIAYGLDK(Gluratylation)K_]”, the collision cross section under setting [4] amounted to 470.31 ± 1.8 Å² and the collision cross section under setting [5] is reported as 565.52 ± 1.3 Å².
Turning to “IINEPTAAAIAYGLDKK [_IINEPTAAAIAYGLDK(GlyGly (K))K_]”, the collision cross section under setting [20] was found to be 510.84 ± 1.5 Å² and the collision cross section under setting [6] stood at 560.44 ± 1.9 Å².
Sequence “IINEPTAAAIAYGLDKK [_IINEPTAAAIAYGLDK(Malonyl)K_]” had a collision cross section under setting [21] of 458.91 ± 0.99 Å².
As for “IINEPTAAAIAYGLDKK [_IINEPTAAAIAYGLDK(Methyl (K))K_]”, the collision cross section under setting [22] amounted to 488.76 ± 3.7 Å² and the collision cross section under setting [8] turned out to be 550.89 ± 0.34 Å².
With “IINEPTAAAIAYGLDKK [_IINEPTAAAIAYGLDK(Succinyl)K_]”, the collision cross section came out at 465.22 ± 1.4 Å² under setting [23] and 564.64 ± 0.073 Å² under setting [9].
“IINEPTAAAIAYGLDKK [_IINEPTAAAIAYGLDK(Trimethyl (K))K_]”: the collision cross section reads like this: under setting [25], 500.2 ± 1.5 Å²; under setting [10], 559.85 ± 0.91 Å².
Sequence “IINEPTAAAIAYGLDKK [_IINEPTAAAIAYGLDK(hydroxyisobutyryl)K_]” returned a collision cross section under setting [11] of 464.51 ± 4.5 Å² and a collision cross section under setting [12] of 564.39 ± 3 Å².
Under setting [13], “IISSIEQKEENK [_IISSIEQK(Acetyl (K))EENK_]” had a collision cross section of 401.35 ± 0.23 Å².
In the case of IISSIEQKEENK [_IISSIEQK(Biotin)EENK_], the collision cross section (charge state: 2, modification: Biotin) turned out to be 422.44 ± 3 Å² and the collision cross section under setting [15] came out at 481.73 ± 1.6 Å².
For the sequence IISSIEQKEENK [_IISSIEQK(Butyryl)EENK_], the collision cross section by setting is: under setting [16], 408.13 ± 0.85 Å²; under setting [1], 479 Å².
Consider IISSIEQKEENK [_IISSIEQK(Crotonyl)EENK_], for which the collision cross section under setting [17] is on record as 407.53 ± 0.9 Å².
For “IISSIEQKEENK [_IISSIEQK(Dimethyl (K))EENK_]”, the collision cross section runs as follows: under setting [24], 410.65 ± 1.1 Å²; under setting [18], 464.23 ± 1.4 Å².
Consider IISSIEQKEENK [_IISSIEQK(Formyl)EENK_], for which, under setting [19], the collision cross section stood at 398.84 ± 0.2 Å².
For the sequence “IISSIEQKEENK [_IISSIEQK(Gluratylation)EENK_]”, the collision cross section reads like this: under setting [4], 411.03 ± 0.6 Å²; under setting [5], 467.18 ± 1.7 Å².
As to “IISSIEQKEENK [_IISSIEQK(GlyGly (K))EENK_]”, the collision cross section runs as follows: under setting [20], 403.29 ± 1.5 Å²; under setting [6], 482.93 Å².
The sequence IISSIEQKEENK [_IISSIEQK(Malonyl)EENK_] displayed a collision cross section under setting [21] of 405.63 ± 0.59 Å².
With “IISSIEQKEENK [_IISSIEQK(Methyl (K))EENK_]”, the collision cross section by setting is: under setting [22], 408.26 ± 2.5 Å²; under setting [8], 450.18 ± 5 Å².
The sequence “IISSIEQKEENK [_IISSIEQK(Propionyl)EENK_]” displayed a collision cross section (charge state: 2, modification: Propionyl) of 403.07 ± 0.65 Å².
The sequence IISSIEQKEENK [_IISSIEQK(Succinyl)EENK_] showed a collision cross section under setting [23] of 408.03 ± 0.55 Å² and a collision cross section under setting [9] of 479.06 ± 2.5 Å².
With “IISSIEQKEENK [_IISSIEQK(Trimethyl (K))EENK_]”, the collision cross section came to 411.54 ± 1.1 Å² under setting [25] and 448.49 ± 1.5 Å² under setting [10].
With “IISSIEQKEENK [_IISSIEQK(hydroxyisobutyryl)EENK_]”, the collision cross section runs as follows: under setting [11], 408.38 ± 0.3 Å²; under setting [12], 478.99 ± 4 Å².
For ILDLKTGTVK [_ILDLK(Acetyl (K))TGTVK_], the collision cross section under setting [13] is 355.21 ± 0.89 Å².
In the case of ILDLKTGTVK [_ILDLK(Butyryl)TGTVK_], the collision cross section under setting [16] came out at 361.67 ± 1.2 Å².
The sequence ILDLKTGTVK [_ILDLK(Crotonyl)TGTVK_] had a collision cross section under setting [17] of 360.69 ± 0.88 Å².
Take ILDLKTGTVK [_ILDLK(Dimethyl (K))TGTVK_]: the collision cross section under setting [24] is reported as 355.49 ± 0.51 Å².
With ILDLKTGTVK [_ILDLK(Formyl)TGTVK_], the collision cross section under setting [19] is listed as 351.57 ± 1 Å².
